# Experiments:
# GST-Bsx [1] = molecular target: T1, GST-Bsx (zebrafish, UniProt Q6R3Q6 1-227); test: competition; competitor vs BSXRE probe (EMSA); EMSA: DIG Gel Shift Kit (Roche) per manufacturer, 2.0 pmol GST-Bsx with 32 fmol DIG-oligonucleotide or 8 fmol DIG-147bp probe; buffer, pH and temperature not stated; settings: protein: recombinant; tags: N-terminal GST (pGEX-5X-1); annealed synthetic oligonucleotides
# GST-Bsx [2] = molecular target: T1, GST-Bsx; test: EMSA; EMSA: DIG Gel Shift Kit (Roche) per manufacturer, 2.0 pmol GST-Bsx with 32 fmol DIG-oligonucleotide or 8 fmol DIG-147bp probe; buffer, pH and temperature not stated; settings: protein: recombinant, tags: N-terminal GST (pGEX-5X-1), label: DIG, annealed synthetic oligonucleotides
# T1 sequence (Q6R3Q6 whole entry): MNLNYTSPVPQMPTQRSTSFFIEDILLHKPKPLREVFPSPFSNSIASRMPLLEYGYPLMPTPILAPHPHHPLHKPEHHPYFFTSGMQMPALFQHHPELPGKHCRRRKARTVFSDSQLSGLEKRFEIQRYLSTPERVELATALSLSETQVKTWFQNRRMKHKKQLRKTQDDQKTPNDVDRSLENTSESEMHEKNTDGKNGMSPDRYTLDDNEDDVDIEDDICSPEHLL
Binder,binding result (GST-Bsx [1]),further results
D4 competitor (dsDNA) DNA 1: GAATTCGATTCTGATAATCTGTGTGTGATCAAGCTT DNA 2: AAGCTTGATCACACACAGATTATCAGAATCGAATTC,binds,
BSXRE probe (dsDNA) DNA 1: GAATTCGATGGCGCTAATCGGTGGGGGATCAAGCTT DNA 2: AAGCTTCATCCCCCACCGATTAGCGCCATCGAATTC,,binding result (GST-Bsx [2]; 36-mer): binds
BSXRE-mut probe (dsDNA) DNA 1: GAATTCGATGGCGCTACGATGTGGGGGATCAAGCTT DNA 2: AAGCTTCATCCCCCACATCGTAGCGCCATCGAATTC,,binding result (GST-Bsx [2]): no binding
P3 competitor (dsDNA) DNA 1: GAATTCGATCTCCTGTAATCTGCCTAAATCAAGCTT DNA 2: AAGCTTGATTTAGGCAGATTACAGGAGATCGAATTC,binds,
D2 competitor (dsDNA) DNA 1: GAATTCGATTGTTTTTAATAAAGATTTATCAAGCTT DNA 2: AAGCTTGATAAATCTTTATTAAAAACAATCGAATTC,binds,
D3 competitor (dsDNA) DNA 1: GAATTCGATAGATTTAATATTTCAGTCATCAAGCTT DNA 2: AAGCTTGATGACTGAAATATTAAATCTATCGAATTC,binds,
